This note sets out measurements from patent US20090136516A1 (DUKE UNIVERSITY, published 2009).

The target in assay [1] is T1, mouse CD20 (mouse, UniProt P19437 1-291).
T1 construct: whole, on cells; Endogenous mouse CD20 on primary B cells; also called cell-surface CD20
T1 sequence (looked up): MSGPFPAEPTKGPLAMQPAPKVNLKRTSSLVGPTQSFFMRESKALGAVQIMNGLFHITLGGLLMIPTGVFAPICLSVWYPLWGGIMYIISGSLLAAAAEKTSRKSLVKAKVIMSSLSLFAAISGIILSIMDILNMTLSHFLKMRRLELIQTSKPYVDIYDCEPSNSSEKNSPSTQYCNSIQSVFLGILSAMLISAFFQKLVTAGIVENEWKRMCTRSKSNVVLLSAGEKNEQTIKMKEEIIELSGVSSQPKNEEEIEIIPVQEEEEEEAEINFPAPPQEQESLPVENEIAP
Description: indirect immunofluorescence, flow cytometry, cultured mouse spleen B cells at 37 C. Details: reference not given here.

In assay [2] the target is T1, mouse CD20. Description: flow cytometry, mouse spleen CD19+ B cells, mAb at 0.5 µg/mL, isotype-specific secondary antibody. Here is the method: Twelve mouse anti-mouse CD20 monoclonal antibodies, with representatives of each IgG isotype, were assessed for their ability to bind B cells and deplete them in vivo. Each monoclonal antibody reacted uniformly with CD19⁺ primary B cells in vitro with characteristic mean fluorescence intensities that were independent of monoclonal antibody isotype (FIG. 6A). When monoclonal antibody reactivity with primary B cells was assessed over a range of monoclonal antibody concentrations, most monoclonal antibodies reached saturating levels of staining when used at concentrations between 1-10 μg/mL (FIG. 6B). […] When all monoclonal antibodies were used at 0.5 μg/mL, each monoclonal antibody reacted uniformly with CD19⁺ primary B cells with characteristic low to high mean fluorescence intensities (FIG. 6C, Table 5). Similar results were obtained using a mouse CD20 cDNA-transfected pre-B cell line with anti-mouse Ig secondary antibody. Based on this analysis, the MB20-1 monoclonal antibody represented monoclonal antibodies with the lowest relative affinity/avidity, while the MB20-18 monoclonal antibody reacted strongly with B cells and stained B cells at the highest levels of all 12 anti-CD20 monoclonal antibodies (Table 5).
(In general: In flow cytometry, cells or beads pass a laser one at a time.)

A further assay addresses T2, mouse CD20 (mouse) (UniProt P19437).
T2 sequence (looked up): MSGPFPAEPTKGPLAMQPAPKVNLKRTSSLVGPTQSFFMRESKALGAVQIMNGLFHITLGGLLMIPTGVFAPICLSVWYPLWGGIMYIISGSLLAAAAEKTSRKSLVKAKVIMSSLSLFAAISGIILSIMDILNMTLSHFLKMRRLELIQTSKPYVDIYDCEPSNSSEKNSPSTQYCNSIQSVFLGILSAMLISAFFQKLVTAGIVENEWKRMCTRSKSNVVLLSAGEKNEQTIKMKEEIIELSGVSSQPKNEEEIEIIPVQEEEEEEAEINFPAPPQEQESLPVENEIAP
Described as above.

B1: MB20-11 monoclonal antibody (antibody, part only; not given: light chain, V domains shown, part only)
VH: EVQLQESGPELVKPGASVKMSCKASGYKITDYNMHWVKQSHGKSLEWIGYIAPYNGGTTYNQKFKGKATLTVNKSSSTAYMELRSLTSEDSAVYYCAGALDYWGQGTSVTVSS
The molecule B1 yielded an increase in antibody binding over time with mouse CD20 [1] of 97%. In addition, the B cell reactivity (mean linear fluorescence intensity) (mean linear fluorescence intensity) in the assay with mouse CD20 [2] amounted to 158.

B2: MB20-16 monoclonal antibody (antibody, part only; not given: light chain, V domains shown, part only)
VH: EVQLQESGPELVKPGASVKMSCKASGYTFTDYNLHWVKQSHGQSLEWIGYINPNNGGATYNQKFTGKATLTVNRSSSTAYMELRSLTSDDSAVYYCAEIYDGYYWGQGTTLTVSS
In the case of B2, the B cell reactivity (mean linear fluorescence intensity) (mean linear fluorescence intensity) with mouse CD20 (mouse) worked out at 170.
